The numbers were not newly measured in patent US6303637A, “Heterocyclic potassium channel inhibitors” (Merck & Co., Inc., priority 1999, dated 2001), which cites them from elsewhere.

For orientation: IC50 means the midpoint of a concentration-inhibition curve.

This series addresses T1, Kv 1.3 channels (Homo sapiens, UniProt P22001).
T1 construct: expressed in transfected cells; host or cells: CHO cells
The conditions noted are these: margatoxin used at saturating concentration to establish the efflux window; read-out: IC50 (blocker of Kv 1.3 channels).

T1 sequence (P22001 whole entry): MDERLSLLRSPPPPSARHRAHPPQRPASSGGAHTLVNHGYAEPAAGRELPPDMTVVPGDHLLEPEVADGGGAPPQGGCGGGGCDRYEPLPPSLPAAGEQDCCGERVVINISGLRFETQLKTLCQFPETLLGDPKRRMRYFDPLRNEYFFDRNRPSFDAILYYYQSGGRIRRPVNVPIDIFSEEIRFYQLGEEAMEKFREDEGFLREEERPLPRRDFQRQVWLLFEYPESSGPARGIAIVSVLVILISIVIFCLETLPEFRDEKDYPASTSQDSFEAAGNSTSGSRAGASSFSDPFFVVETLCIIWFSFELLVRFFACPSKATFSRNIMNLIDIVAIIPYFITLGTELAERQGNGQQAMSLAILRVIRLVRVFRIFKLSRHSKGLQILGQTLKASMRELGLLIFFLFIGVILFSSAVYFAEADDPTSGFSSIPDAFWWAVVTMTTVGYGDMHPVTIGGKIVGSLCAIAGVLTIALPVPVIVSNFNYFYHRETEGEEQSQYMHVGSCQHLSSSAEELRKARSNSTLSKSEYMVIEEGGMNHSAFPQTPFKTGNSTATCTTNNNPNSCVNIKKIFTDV

As to “margatoxin (TIINVKCTSPKQCLPPCKAQFGQSAGAKCMNGKCKCYPH; UniProt P40755 1-39, looked up)”, the IC50 is 0.1 nM.
